In patent US20240117061A1 (WUHAN YZY BIOPHARMA, published 2024) one finds EC50, IC50 and competition data, which are given here for two molecules.

Broadly, the EC50 is the concentration that produces a half-maximal response. Usually IC50 stands for the midpoint of a concentration-inhibition curve.

The target of assay [1] is T1, recombinant human BCMA-his fusion protein (ACRO Biosystem, Cat. No. BCA-H522y) (human, UniProt Q02223 1-54).
T1 construct: extracellular domain; Bought protein; also called huBCMA-his; hu BCMA-his; not shown: His tag
T1 sequence (looked up): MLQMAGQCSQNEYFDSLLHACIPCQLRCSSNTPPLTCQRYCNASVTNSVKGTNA
Briefly: ELISA, coated antigen. The method in brief: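 Plates coated overnight at 4° C with 0.5 μg/mL His-tagged BCMA antigen (human or cynomolgus) in PBS pH 7.4, then blocked with 3% BSA. Humanized antibodies in 3-fold serial dilutions (11 points) were bound 1 h at room temperature. Detection used HRP anti-His antibody and TMB, read as OD450.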

Assay [2] addresses T2, recombinant cynomolgus monkey BCMA-mFc (cynomolgus monkey; mouse).
T2 construct: also called cynoBCMA-mFc
Briefly: indirect ELISA, coated antigen. The procedure:
Procedures: Human, mouse and monkey BCMA antigens were prepared into 0.5 μg/mL coating solutions with PBS buffer. The coating solutions were added to a microplate at 100 μL/well and incubated at 4° C. overnight. The residual coating solution was discarded before 3% BSA was added at 300 μL/well, and the plate was blocked for 3 h at room temperature. The microplate was washed once with PB ST (PBS containing 0.1% of TWEEN 20) at 300 μL/well. The human-mouse chimeric monoclonal antibodies were serially 3-fold diluted from 10 μg/mL to the 9th concentration. The dilutions were added to the microplate at 100 μL/well. After a 1-h incubation at room temperature, the microplate was washed thrice with PB ST at 300 μL/well. The mouse anti-human IgG Fc antibody [HRP] mAb was 25,000-fold diluted with 1% BSA-PBST and added at 100 μL/well. After another 1-h incubation at room temperature, the microplate was washed thrice with PBST at 300 μL/well and dried. The TMB chromogenic solution was added at 100 μL/well. After a 5-min reaction at room temperature, 2 M H₂SO₄ was added at 100 μL/well to terminate the reaction. The microplate was placed on a microplate reader (Molecular Devices, SPECTRA Max plus 384) and the absorbance OD450 value was read at 450 nm wavelength.
(In general: ELISA stands for enzyme-linked immunosorbent assay.)

For assay [3], the target named is T3, human BCMA on cells (NCI-H929, U266B1, HEK293 huBCMA) (human, UniProt Q02223 1-184).
T3 construct: whole, on cells; also called cell surface BCMA antigen
T3 sequence (looked up): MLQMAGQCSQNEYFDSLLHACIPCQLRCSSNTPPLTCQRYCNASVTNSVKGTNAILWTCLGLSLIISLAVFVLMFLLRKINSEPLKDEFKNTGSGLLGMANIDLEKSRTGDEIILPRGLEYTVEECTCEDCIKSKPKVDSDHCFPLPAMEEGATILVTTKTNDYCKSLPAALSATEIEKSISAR
The experiment in a line: flow cytometry on NCI-H929 cells. On the procedure: (§1) Procedures: Preparation of cell suspensions: The cells were resuspended in PBS, and the cell density was adjusted to 2×10⁵ cells/well. Mouse antibodies were added to a 96-well plate at […] and serially 3-fold diluted from 3000 nM. The plate was incubated for 1 h at 4° C. 150 μL of precooled PBS containing 1% of FBS was added into the 96-well plate after the co-incubation with the primary antibody was finished. The mixtures were centrifuged at 300×g for 5 min and the supernatants were discarded. The above procedures were repeated once. The fluorescent secondary antibody PE […] (Biolegend, 409304) was added at 80 μL/well. The plate was incubated at 4° C. for 30 min. 150 μL of precooled PBS containing 1% of FBS was added into the 96-well plate after the co-incubation with the secondary antibody was finished. The mixtures were uniformly mixed with a pipette. The 96-well plate was centrifuged at 300×g for 5 min in a plate centrifuge and the supernatants were removed. The above procedures were repeated once. The cells were resuspended in 100 μL of PBS containing 1% of FBS and detected on a flow cytometry (BD Accuri™ C6).

Assay [4] deals with T4, cynomolgus monkey BCMA on HEK293 cynoBCMA cells (cynomolgus monkey, UniProt A0A2K5UD97 1-183).
T4 construct: whole, on cells
Briefly: flow cytometry on HEK293 cynoBCMA cells. On the procedure: as §1

For assay [5], the target named is T1, recombinant human BCMA-his fusion …. Briefly: competitive ELISA, coated huBCMA-his, competitor 83A10-biotin. On the procedure: The 96-well microplate was treated with 100 μL of 0.5 μg/mL huBCMA-his in PBS and incubated overnight at 4° C. The plate was then washed thrice with PBS washing buffer containing 0.1% of Tween-20 and blocked with 300 μL of PBS containing 1% of BSA for 2 h. 100 μL of each BCMA antibody was added to the plate. […] The plate was incubated at 37° C. for 1 h, and unbound secondary antibody was washed with PBS washing buffer containing 0.1% of Tween-20. The TMB chromogenic solution was added at 100 μL/well. After a 5-min reaction at room temperature, 2 M H₂SO₄ was added at 100 μL/well to terminate the reaction. The microplate was placed on a microplate reader (Molecular Devices, SPECTRA Max plus 384) and the absorbance OD450 value was read at 450 nm wavelength.

The target in assay [6] is T5, recombinant cynomolgus monkey cynoBCMA-his (ACRO Biosystem, Cat. No. BCA-052H7) (cynomolgus monkey, UniProt A0A2K5UD97 1-53).
T5 construct: extracellular domain; Bought protein; also called cynomolgus/rhesus macaque BCMA/TNFRSF17 protein; not shown: His tag
Briefly: competitive ELISA, coated cynoBCMA-his, competitor 83A10-biotin.

Assay [7] addresses T1, recombinant human BCMA-his fusion …. Briefly: competitive ELISA, coated huBCMA-his, competitor 83A10-biotin, antibody at 7 µg/mL.

T5 sequence (A0A2K5UD97 entry or part of it): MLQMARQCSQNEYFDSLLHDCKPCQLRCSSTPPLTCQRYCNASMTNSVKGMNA
T4 sequence (A0A2K5UD97 entry or part of it): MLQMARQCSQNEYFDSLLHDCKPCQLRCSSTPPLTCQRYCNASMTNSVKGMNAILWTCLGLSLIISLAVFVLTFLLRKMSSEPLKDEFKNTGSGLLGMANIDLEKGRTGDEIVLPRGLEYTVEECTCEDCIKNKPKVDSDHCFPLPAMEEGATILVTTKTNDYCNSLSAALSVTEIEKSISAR
T2 sequence (chain, as listed by the source limits assumed): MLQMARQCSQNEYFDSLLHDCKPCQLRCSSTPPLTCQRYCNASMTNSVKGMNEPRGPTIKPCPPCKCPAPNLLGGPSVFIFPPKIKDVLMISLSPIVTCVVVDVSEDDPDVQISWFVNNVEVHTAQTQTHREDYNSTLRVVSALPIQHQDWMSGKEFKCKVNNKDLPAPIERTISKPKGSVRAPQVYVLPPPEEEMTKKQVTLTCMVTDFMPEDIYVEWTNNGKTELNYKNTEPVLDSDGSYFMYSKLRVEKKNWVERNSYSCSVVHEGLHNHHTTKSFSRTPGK

B1: human-mouse chimeric antibody c-mAb3 (antibody, human IgG1, V domains shown)
VH: EVQLQQSGPELVKPGASVKILCKASGYTITDYNMDWVKRSHGKSLEWIGNINPHNGGSIYNQKFKGKATLTVDKSSSTAFMELRSLTSEDTAVYYCARGDATLVLDYWGQGTSLTVSS
VL: DIVLTQSPASLAVSLGQRATISCRASKSVSTSGLSYMHWYQQKPGQPPKVLIYLASNLESGVPARFSGSGSGTDFTLNIHPVEEEDAATYYCQHSRELPPTFGAGTKLELK
notes: not shown: human IgG1 heavy chain constant region, GenBank No. AK303185.1; human kappa light chain constant region, GenBank No. MG815648.1
In the case of B1, the EC50 in assay [1] was determined as 0.0155 nM; in assay [2], 0.723 nM; in assay [3], 8.25 nM; in assay [4], 2.66 nM. Besides, the IC50 amounted to 1 µg/mL in assay [5] and 1.05 µg/mL in assay [6].

B2: human-mouse chimeric antibody c-mAb2 (antibody, human IgG1, V domains shown)
VH: QVQLQQSDAELVKPGTSVKISCKVSGYTFTDHTIHWMKQRPEQGLEWIGYIYPRNGNTKYNEKFKGKATLTADKSSSTAYMHLNSLTSEDSAVYFCARYDYDGYFDVWGTGTTVTVSS
VL: DVVMTQTPLSLPVSLGDQASISCRSSQSHVHSDGHTYLHWYLQKPGQSPELLIYKVSNRFSGVPDRFSGSGSGTDFTLKISRVEAEDLGVYFCSQNTHFPWTFGGGTKLEIK
notes: as for B1
On to B2, for which the EC50 was 0.0257 nM in assay [1] and 5.7 nM in assay [3]. Moreover, the IC50 in assay [5] worked out at 8 µg/mL. Further, the competition in assay [7] was 40%.
